Reference: US20240261333A1 (published 2024)

Tests used:
Assay in all cases: anti-FLAG co-IP from lysate of N-FLAG B3GNT2 cells, mass spectrometry
[1] = biological target: T1, IFI16 (human, UniProt Q16666-2 1-729, limits assumed)
T1 construct: also called NP_001193496.1 (+3)
T1 sequence (looked up): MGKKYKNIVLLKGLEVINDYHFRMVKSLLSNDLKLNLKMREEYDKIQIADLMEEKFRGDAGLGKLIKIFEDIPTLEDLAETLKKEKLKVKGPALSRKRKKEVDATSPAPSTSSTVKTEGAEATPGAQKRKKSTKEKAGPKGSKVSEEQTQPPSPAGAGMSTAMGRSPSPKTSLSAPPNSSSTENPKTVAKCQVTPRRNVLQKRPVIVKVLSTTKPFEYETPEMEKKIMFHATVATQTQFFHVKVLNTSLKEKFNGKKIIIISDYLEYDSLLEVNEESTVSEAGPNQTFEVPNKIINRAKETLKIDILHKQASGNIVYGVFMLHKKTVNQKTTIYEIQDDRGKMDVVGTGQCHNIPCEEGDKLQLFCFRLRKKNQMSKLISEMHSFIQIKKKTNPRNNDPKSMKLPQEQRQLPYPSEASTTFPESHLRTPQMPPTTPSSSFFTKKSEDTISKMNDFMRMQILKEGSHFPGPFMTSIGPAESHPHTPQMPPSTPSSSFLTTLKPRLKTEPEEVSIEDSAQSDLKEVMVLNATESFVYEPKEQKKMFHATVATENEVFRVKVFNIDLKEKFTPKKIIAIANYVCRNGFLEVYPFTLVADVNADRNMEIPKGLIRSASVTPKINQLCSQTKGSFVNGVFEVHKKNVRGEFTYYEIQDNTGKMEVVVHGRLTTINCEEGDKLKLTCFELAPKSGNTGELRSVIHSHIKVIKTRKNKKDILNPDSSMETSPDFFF
Method: (§1) Cells were plated in 10-cm cell culture dishes and grown to 60-80% confluency. For each condition, two biological replicates were harvested for co-IP. Cells were washed with PBS and 4 mL of lysis buffer (20 mM HEPES, 1% Triton X-100, 150 mM NaCl, 1 mM EDTA, and 10% glycerol) containing protease inhibitor cocktail was added. Cells were scraped and lysate was incubated at 4° C. under rotary agitation for 1 h. Lysate was centrifuged at 14,000×g for 10 min at 4° C. Supernatant was transferred to a new tube and an aliquot was taken as the input. […] For Western blots, 10 μg/mL Chicken Anti-FLAG (Aves labs ET-DY100) and IgY control (R&D Systems AB-101-C) antibodies were biotinylated (Thermo Fisher Scientific 90407) and added to the respective conditions. Lysates with antibodies were incubated at 4° C. under rotary agitation overnight. For each mL of lysate, 50 μL of Pierce Protein A/G Magnetic Beads (Mass spectrometry; Thermo Fisher Scientific 88803) or Pierce Streptavidin Magnetic Beads (Western blot; Thermo Fisher Scientific 88817) was washed twice with lysis buffer. Lysates with antibodies were added to the beads and incubated at 4° C. under rotary agitation for 4 h. Beads were washed with lysis buffer 3 times and resuspended in lysis buffer for storage.
(§2) Magnetic beads were resuspended in 100 mM Tris pH 7.8, reduced, alkylated and digested with trypsin at 37° ° C. overnight. This solution was subjected to solid phase extraction to concentrate the peptides and remove unwanted reagents followed by injection onto a Shimadzu HPLC with fraction collector. Eight fractions were collected and after concentration were injected on a Waters NanoAcquity HPLC equipped with a self-packed Aeris 3 μm C18 analytical column 0.075 mm by 20 cm, (Phenomenex). Peptides were eluted using standard reverse-phase gradients. The effluent from the column was analyzed using a Thermo Orbitrap Elite mass spectrometer (nanospray configuration) operated in a data dependent manner for 54 minutes. The resulting fragmentation spectra were correlated against the known database using Proteome Discover 1.4 (Thermo Fisher Scientific).

[2] = biological target: T2, ERP44 (human, UniProt Q9BS26 30-406)
T2 construct: also called NP_055866.1
T2 sequence (looked up): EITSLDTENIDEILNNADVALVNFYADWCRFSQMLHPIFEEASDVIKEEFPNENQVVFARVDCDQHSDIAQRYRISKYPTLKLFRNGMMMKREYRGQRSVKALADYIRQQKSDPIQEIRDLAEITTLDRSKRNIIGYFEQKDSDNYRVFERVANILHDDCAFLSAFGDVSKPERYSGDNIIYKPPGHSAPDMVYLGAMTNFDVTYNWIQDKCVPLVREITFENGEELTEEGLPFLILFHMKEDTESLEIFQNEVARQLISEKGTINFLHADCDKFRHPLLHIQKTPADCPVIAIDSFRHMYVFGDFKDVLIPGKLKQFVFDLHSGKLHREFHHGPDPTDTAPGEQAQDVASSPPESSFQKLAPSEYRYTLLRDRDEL
Method: as §1, §2

[3] = biological target: T3, H1FX (human, UniProt Q92522 2-213)
T3 construct: also called NP_006017.1
Method: as §1, §2

[4] = biological target: T4, ATAD3A (human, UniProt Q9NVI7 2-586)
T4 construct: also called NP_001164006.1 (+2)
T4 sequence (looked up): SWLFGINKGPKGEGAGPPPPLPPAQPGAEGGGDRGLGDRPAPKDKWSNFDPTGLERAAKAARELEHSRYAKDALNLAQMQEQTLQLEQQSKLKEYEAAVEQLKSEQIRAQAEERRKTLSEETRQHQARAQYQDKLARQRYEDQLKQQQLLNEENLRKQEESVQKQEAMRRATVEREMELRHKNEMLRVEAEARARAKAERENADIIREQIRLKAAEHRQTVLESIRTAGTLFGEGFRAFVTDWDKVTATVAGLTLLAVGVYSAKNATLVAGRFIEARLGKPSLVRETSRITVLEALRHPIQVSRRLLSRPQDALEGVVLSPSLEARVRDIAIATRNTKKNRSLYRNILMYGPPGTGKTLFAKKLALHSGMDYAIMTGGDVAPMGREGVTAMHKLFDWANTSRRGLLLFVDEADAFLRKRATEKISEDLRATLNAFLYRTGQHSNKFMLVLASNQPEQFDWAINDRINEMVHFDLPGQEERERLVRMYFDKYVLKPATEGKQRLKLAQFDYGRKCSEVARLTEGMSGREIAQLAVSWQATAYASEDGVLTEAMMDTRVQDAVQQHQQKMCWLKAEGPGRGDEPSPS
Method: as §1, §2

Measured: co-IP mass spectrometry count

T3 sequence (Q92522 2-213 limits assumed): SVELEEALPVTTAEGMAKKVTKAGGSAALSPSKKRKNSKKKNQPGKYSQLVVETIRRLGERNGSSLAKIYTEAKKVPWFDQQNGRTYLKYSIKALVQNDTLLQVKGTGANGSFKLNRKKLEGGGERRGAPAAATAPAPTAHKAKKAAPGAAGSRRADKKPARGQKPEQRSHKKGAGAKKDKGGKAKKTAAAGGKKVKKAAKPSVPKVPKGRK

B1: N-terminal FLAG tagged B3GNT2 (enzyme, human, UniProt Q9NY97 1-397, looked up)
chain: MSVGRRRIKLLGILMMANVFIYFIMEVSKSSSQEKNGKGEVIIPKEKFWKISTPPEAYWNREQEKLNRQYNPILSMLTNQTGEAGRLSNISHLNYCEPDLRVTSVVTGFNNLPDRFKDFLLYLRCRNYSLLIDQPDKCAKKPFLLLAIKSLTPHFARRQAIRESWGQESNAGNQTVVRVFLLGQTPPEDNHPDLSDMLKFESEKHQDILMWNYRDTFFNLSLKEVLFLRWVSTSCPDTEFVFKGDDDVFVNTHHILNYLNSLSKTKAKDLFIGDVIHNAGPHRDKKLKYYIPEVVYSGLYPPYAGGGGFLYSGHLALRLYHITDQVHLYPIDDVYTGMCLQKLGLVPEKHKGFRTFDIEEKNKNNICSYVDLMLVHSRKPQEMIDIWSQLQSAHLKC
notes: Bait of the co-IP; pulled down from cell lysate with mouse anti-FLAG antibody; also called N-FLAG B3GNT2; N-term FLAG; not shown: N-terminal FLAG tag
0: [1] | [2] | [3] | [4]
